The text below walks through data of article PMC7855269 (FASEB journal : official publication of the Federation of …, 2020).

The target of the experiment is FLAG-WT CFTR (cystic fibrosis transmembrane conductance regulator) (UniProt P13569 1-1480). Put plainly: pull-down.
Sequence of FLAG-WT CFTR (cystic fibrosis transmembrane conductance regulator) (P13569 whole entry): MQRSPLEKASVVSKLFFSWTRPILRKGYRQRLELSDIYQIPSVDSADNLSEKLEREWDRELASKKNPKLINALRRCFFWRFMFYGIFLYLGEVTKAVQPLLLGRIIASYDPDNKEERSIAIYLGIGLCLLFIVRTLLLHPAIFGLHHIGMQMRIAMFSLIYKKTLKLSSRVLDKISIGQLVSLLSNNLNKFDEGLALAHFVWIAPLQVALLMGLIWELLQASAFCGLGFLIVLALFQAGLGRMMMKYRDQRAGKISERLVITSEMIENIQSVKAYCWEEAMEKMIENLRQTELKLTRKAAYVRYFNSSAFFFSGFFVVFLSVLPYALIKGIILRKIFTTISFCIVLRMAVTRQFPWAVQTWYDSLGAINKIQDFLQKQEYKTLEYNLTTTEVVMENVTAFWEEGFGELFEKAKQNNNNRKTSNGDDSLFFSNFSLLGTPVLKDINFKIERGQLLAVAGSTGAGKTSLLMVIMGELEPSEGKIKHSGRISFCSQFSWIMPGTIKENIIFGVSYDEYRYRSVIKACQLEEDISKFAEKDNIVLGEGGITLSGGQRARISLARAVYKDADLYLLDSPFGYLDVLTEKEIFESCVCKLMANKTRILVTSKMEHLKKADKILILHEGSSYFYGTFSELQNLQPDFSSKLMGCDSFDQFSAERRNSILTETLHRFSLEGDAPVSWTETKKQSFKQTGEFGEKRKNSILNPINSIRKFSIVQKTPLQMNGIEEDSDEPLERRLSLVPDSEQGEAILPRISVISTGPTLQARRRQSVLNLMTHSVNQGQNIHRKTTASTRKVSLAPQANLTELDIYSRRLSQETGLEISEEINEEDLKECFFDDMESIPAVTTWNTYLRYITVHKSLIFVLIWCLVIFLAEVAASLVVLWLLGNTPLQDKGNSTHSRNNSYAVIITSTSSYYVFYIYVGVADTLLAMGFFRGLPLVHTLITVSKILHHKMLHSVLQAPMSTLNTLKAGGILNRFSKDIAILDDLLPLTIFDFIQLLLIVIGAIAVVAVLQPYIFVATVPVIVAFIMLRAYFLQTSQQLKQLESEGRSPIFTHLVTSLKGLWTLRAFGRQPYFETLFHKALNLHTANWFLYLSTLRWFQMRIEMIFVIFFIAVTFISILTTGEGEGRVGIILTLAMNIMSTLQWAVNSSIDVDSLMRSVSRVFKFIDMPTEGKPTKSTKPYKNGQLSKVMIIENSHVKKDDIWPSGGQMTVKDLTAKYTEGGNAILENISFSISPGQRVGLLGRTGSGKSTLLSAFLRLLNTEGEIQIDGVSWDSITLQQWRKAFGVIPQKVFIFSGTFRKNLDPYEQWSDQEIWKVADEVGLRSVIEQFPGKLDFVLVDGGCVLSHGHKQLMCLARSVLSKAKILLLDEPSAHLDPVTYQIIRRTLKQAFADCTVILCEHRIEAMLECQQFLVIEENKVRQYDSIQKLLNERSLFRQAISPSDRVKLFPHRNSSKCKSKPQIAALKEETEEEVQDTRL

B1: GST-His-S-Stx17ΔC (Stx17 1–228) (domain or fragment, UniProt P56962 1-228, looked up)
chain: MSEDEEKVKLRRLEPAIQKFIKIVIPTDLERLRKHQINIEKYQRCRIWDKLHEEHINAGRTVQQLRSNIREIEKLCLKVRKDDLVLLKRMIDPVKEEASAATAEFLQLHLESVEELKKQFNDEETLLQPPLTRSMTVGGAFHTTEAEASSQSLTQIYALPEIPQDQNAAESWETLEADLIELSQLVTDFSLLVNSQQEKIDSIADHVNSAAVNVEEGTKNLGKAAKYK
For B1, the binding result is on record as “binds”.
